From article PMC2797707 (Journal of the American Chemical Society, 2009)

B1: H61A Mycobacterium tuberculosis CsoR (natural protein)
chain: MSKELTAKKRAALNRLKTVRGHLDGIVRMLESDAYCVDVMKQISAVQSSLERANRVMLHNALETCFSTAVLDGHGQAAIEELIDAVKFTPALTGPHARLGGAAVGESATEEPMPDASNM

Assays:
[1] = tested on: CsoR H61A (Mycobacterium tuberculosis); assay: fluorescence anisotropy; conditions: pH 7.0, 0.2 M NaCl, 2 mM DTT, 25 °C (buffer not stated in the material)
[2] = target: the molecule itself

| Molecule | Ka (M-1 (A2 (so in the source); ≤)) [1] | stoichiometry N [2] |
| --- | --- | --- |
| cso operator DNA | < 1e+10 |  |
| B1 |  | 4 |
